# Reference: US20130129763A1 (ARNE FORSGREN, published 2013)
# Where two headings read alike, the source gives them in different places.
# What was measured:
# [1] = biological target: UspA2 on the surface of M. catarrhalis (clinical isolates BBH18 and RH4) (Moraxella catarrhalis); test: flow cytometry on M. catarrhalis RH4 ΔuspA1 (UspA2 left on the surface) incubated with C3met: rabbit anti-C3d pAb + FITC anti-rabbit pAb; same column: wild type mfi 22.1, Δmid mfi 23.4 (both carry UspA1 and UspA2), ΔuspA1/A2 mfi 0.3
# [2] = biological target: UspA1 on the surface of M. catarrhalis (clinical isolates BBH18 and RH4) (Moraxella catarrhalis); test: flow cytometry on M. catarrhalis RH4 ΔuspA2 (UspA1 left on the surface) incubated with C3met: rabbit anti-C3d pAb + FITC anti-rabbit pAb; same column: wild type mfi 22.1, Δmid mfi 23.4 (both carry UspA1 and UspA2), ΔuspA1/A2 mfi 0.3
# [3] = biological target: UspA2 on the surface of M. catarrhalis (clinical isolates BBH18 and RH4) (Moraxella catarrhalis); test: flow cytometry on M. catarrhalis RH4 ΔuspA1 (UspA2 left on the surface) incubated with EDTA-treated normal human serum: rabbit anti-C3d pAb + FITC anti-rabbit pAb; same column: wild type mfi 5.4, Δmid mfi 5.7 (both carry UspA1 and UspA2), ΔuspA1/A2 mfi 0.8
# [4] = biological target: UspA1 on the surface of M. catarrhalis (clinical isolates BBH18 and RH4) (Moraxella catarrhalis); test: flow cytometry on M. catarrhalis RH4 ΔuspA2 (UspA1 left on the surface) incubated with EDTA-treated normal human serum: rabbit anti-C3d pAb + FITC anti-rabbit pAb; same column: wild type mfi 5.4, Δmid mfi 5.7 (both carry UspA1 and UspA2), ΔuspA1/A2 mfi 0.8
# [5] = biological target: T1, Engelbreth-Holm-Swarm mouse sarcoma laminin (Sigma) (mouse, UniProt P19137 25-3083; P02469 22-1786; P02468 34-1607); test: ELISA: 40 nM protein coated, laminin 20 µg/ml, rabbit anti-laminin pAb + HRP anti-rabbit pAb
# T1 construct: also called soluble laminin
# [6] = biological target: T2, fibronectin (Sigma), soluble (UniProt P02751 32-2296); test: competition, flow cytometry: fibronectin pre-incubated with the UspA1 fragment, then M. catarrhalis added; fibronectin left bound to the bacteria detected with anti-fibronectin pAb
# T2 construct: also called soluble fibronectin; 125I-labeled fibronectin
# [7] = biological target: T1, Engelbreth-Holm-Swarm mouse sarcoma …; test: ELISA: 40 nM protein coated, laminin 20 µg/ml, rabbit anti-laminin pAb + HRP anti-rabbit pAb; remark: listed apart in the source
# [8] = biological target: T1, Engelbreth-Holm-Swarm mouse sarcoma …; test: as above; remark: listed apart in the source
# [9] = biological target: T3, methylamine-treated C3 (C3met) (human, UniProt P01024 23-667; P01024 672-1663); test: ELISA: 40 nM protein coated, C3met in solution, goat anti-human C3 pAb + HRP anti-goat pAb, background subtracted
# T3 construct: mature; also called C3b-like molecule; [125I]-C3met
# [10] = biological target: T2, fibronectin (Sigma), soluble; test: ELISA: 40 nM fragment coated, fibronectin 120 µg/ml, rabbit anti-fibronectin pAb + HRP anti-rabbit pAb
# [11] = biological target: T2, fibronectin (Sigma), soluble; test: ELISA: 40 nM fragment coated, fibronectin 80 µg/ml, rabbit anti-fibronectin pAb + HRP anti-rabbit pAb
# [12] = biological target: T3, methylamine-treated C3 (C3met); test: SPR (Biacore 2000), UspA protein amine-coupled on CM5 chip, C3met injected, steady state affinity model; UspA2^30-539 on the chip
# [13] = biological target: T1, Engelbreth-Holm-Swarm mouse sarcoma …; test: ELISA: 40 nM UspA2 30-539 coated, soluble laminin titrated in three-fold steps 0.03-60 µg/ml, rabbit anti-laminin pAb + HRP anti-rabbit pAb
# [14] = biological target: T1, Engelbreth-Holm-Swarm mouse sarcoma …; test: ELISA: 40 nM protein coated, laminin 20 µg/ml, rabbit anti-laminin pAb + HRP anti-rabbit pAb; remark: listed apart in the source
# T2 sequence (P02751 other isoform, or with tags, fused parts or gaps limits assumed): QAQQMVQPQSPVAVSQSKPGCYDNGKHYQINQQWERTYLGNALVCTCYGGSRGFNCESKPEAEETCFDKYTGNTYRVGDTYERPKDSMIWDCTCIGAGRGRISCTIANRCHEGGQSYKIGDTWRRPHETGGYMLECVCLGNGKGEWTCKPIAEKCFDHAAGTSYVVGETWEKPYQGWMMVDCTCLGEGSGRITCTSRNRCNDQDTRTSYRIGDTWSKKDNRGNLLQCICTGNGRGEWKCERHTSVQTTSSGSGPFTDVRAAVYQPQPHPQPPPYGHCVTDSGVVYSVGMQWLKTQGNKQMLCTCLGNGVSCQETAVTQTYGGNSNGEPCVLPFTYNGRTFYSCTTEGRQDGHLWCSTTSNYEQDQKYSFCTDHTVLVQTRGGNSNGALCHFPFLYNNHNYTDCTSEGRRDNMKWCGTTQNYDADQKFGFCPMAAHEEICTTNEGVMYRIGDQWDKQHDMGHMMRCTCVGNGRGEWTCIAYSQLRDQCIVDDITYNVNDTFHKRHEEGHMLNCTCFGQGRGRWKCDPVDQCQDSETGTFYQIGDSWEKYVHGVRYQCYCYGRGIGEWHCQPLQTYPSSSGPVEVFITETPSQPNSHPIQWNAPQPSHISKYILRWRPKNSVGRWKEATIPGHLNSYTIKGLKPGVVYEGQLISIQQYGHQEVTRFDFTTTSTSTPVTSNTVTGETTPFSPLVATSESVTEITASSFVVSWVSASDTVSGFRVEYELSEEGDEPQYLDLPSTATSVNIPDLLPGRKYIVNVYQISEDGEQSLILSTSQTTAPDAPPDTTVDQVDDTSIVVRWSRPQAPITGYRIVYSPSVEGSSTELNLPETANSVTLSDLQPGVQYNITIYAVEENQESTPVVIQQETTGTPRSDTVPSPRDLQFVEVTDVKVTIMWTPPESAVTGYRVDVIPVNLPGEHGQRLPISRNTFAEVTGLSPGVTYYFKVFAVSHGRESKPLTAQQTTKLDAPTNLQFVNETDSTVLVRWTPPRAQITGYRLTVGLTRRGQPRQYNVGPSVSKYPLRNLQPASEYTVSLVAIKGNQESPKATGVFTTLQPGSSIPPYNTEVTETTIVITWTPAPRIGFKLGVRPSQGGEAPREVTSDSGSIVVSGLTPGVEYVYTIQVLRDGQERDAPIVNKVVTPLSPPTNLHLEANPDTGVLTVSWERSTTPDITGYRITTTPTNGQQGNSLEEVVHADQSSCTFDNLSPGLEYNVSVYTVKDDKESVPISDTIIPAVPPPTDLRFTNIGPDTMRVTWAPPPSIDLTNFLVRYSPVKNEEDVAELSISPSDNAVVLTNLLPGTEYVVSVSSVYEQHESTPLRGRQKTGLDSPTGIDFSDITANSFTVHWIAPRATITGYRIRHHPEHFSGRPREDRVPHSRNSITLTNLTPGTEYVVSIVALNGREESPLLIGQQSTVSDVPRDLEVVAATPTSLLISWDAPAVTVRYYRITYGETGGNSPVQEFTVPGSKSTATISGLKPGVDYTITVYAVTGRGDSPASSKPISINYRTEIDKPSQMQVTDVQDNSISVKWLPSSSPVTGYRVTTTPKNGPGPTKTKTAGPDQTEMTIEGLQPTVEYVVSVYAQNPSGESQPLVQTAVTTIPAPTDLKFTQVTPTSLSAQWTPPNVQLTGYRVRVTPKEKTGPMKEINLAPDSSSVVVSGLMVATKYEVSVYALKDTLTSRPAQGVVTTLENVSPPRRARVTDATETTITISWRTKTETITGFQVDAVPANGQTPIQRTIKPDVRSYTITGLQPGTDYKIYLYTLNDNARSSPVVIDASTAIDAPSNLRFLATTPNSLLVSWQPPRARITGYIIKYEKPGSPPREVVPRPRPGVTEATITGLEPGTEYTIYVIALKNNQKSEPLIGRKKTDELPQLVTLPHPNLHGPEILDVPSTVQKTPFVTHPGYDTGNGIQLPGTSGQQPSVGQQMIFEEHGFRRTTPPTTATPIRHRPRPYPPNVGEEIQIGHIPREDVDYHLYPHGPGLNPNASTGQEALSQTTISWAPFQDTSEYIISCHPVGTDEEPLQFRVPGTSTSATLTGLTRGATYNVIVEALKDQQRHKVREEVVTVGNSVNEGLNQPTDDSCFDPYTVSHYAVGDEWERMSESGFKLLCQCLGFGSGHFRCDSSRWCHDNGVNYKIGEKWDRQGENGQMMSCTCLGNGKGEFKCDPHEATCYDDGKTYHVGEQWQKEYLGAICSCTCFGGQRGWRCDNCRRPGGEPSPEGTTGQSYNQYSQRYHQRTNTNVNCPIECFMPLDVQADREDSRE
# T3 sequence (P01024 23-667 limits assumed, chain 1 of 2): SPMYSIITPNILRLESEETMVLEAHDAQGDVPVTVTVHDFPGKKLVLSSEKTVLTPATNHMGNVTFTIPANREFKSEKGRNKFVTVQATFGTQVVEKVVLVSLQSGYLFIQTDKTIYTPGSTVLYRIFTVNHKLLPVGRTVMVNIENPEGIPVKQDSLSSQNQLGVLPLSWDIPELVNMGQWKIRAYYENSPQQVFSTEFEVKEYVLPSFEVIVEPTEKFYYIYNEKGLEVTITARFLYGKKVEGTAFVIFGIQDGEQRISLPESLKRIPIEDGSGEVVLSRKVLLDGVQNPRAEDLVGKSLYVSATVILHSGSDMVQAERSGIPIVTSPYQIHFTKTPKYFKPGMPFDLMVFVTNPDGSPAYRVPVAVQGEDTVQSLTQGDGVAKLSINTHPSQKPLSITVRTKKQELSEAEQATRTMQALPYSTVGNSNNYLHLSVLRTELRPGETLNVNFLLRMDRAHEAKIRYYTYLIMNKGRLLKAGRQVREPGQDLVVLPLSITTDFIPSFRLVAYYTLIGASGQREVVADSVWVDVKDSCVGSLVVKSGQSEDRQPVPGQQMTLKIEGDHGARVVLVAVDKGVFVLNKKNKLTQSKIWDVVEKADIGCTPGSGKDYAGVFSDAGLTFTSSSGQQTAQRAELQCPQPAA
# T3 sequence (P01024 672-1663 limits assumed, chain 2 of 2): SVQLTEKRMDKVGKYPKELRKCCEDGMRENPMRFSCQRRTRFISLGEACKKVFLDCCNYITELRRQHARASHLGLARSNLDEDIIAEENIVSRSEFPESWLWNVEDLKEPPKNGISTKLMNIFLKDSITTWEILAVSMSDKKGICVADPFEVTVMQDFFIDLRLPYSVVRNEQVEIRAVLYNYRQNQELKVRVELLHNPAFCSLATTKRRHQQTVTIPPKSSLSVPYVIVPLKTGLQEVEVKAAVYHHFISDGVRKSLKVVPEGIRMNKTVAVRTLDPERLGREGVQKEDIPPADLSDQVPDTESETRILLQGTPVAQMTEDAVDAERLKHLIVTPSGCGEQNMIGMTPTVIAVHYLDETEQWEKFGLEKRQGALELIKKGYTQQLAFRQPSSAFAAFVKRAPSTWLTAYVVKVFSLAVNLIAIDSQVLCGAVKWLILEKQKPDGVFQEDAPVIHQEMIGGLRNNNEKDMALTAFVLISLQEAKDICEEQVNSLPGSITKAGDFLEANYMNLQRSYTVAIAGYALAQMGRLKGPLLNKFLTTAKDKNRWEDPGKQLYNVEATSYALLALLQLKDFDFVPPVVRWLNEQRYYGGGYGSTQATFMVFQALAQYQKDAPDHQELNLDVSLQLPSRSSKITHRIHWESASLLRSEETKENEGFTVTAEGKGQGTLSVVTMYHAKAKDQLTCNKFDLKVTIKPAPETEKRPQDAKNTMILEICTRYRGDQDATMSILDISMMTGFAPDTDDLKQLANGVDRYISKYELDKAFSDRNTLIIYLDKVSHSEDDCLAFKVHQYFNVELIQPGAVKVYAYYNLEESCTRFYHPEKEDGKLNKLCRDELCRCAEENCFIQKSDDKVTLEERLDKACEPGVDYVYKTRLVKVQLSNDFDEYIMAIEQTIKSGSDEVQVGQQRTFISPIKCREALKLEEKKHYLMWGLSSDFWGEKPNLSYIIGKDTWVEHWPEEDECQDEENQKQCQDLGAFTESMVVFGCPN
molecule,measurement,setting,value
methylamine-treated C3 (C3met) (from UniProt P01024 23-667; P01024 672-1663),mfi,[1],14.9
same,mfi,[2],2.7
complement C3 in normal human serum (from UniProt P01024 23-667; P01024 672-1663),mfi,[3],3.9
same,mfi,[4],1.4
recombinant UspA1^680-770 (other) KAINQELEGFAAHADVQDKQILQNQADITTNKTAIEQNINRTVANGFEIEKNKAGIATNKQELILQNDRLNRINETNNHQDQKIDQLGYAL,binding result,[5],no binding
same,binding result,[6],no binding
"recombinant UspA2^165-318 (other, also called UspA2^165-316; UspA2^155-318 (misprints)) KDAIAKNNESIEDLYDFGHEVAESIGEIHAHNEAQNETLKGLITNSIENTNNITKNKADIQALENNVVEELFNLSGRLIDQKADIDNNINNIYELAQQQDQHSSDIKTLKKNVEEGLLELSDHIIDQKTDIAQNQANIQDLATYNELQDQYAQK",binding result,[7],no binding
recombinant UspA1^557-704 (other) NENKDGIAKNQADIQLHDKKITNLGILHSMVARAVGNNTQGVATNKADIAKNQADIANNIKNIYELAQQQDQHSSDIKTLAKVSAANTDRIAKNKAEADASFETLTKNQNTLIEQGEALVEQNKAINQELEGFAAHADVQDKQILQNQ,binding result,[5],no binding
same,binding result,[6],no binding
recombinant UspA2^101-318 (other) LEDDVETLTKNQNAFAEQGEAIKEDLQGLADFVEGQEGKILQNETSIKKNTQRNLVNGFEIEKNKDAIAKNNESIEDLYDFGHEVAESIGEIHAHNEAQNETLKGLITNSIENTNNITKNKADIQALENNVVEELFNLSGRLIDQKADIDNNINNIYELAQQQDQHSSDIKTLKKNVEEGLLELSDHIIDQKTDIAQNQANIQDLATYNELQDQYAQK,binding result,[7],no binding
"recombinant UspA1^50-491 (other, also called N-terminal half of UspA1) KVGKATNKISGGDNNTANGTYLTIGGGDYNKTKGRYSTIGGGLFNEATNEYSTIGSGGYNKAKGRYSTIGGGGYNEATNQYSTIGGGDNNTAKGRYSTIGGGGYNEATIENSTVGGGGYNQAKGRNSTVAGGYNNEATGTDSTIAGGRKNQATGKGSFAAGIDNKANADNAVALGNKNTIEGENSVAIGSNNTVKKGQQNVFILGSNTDTTNAQNGSVLLGHNTAGKAATIVNSAEVGGLSLTGFAGASKTGNGTVSVGKKGKERQIVHVGAGEISDTSTDAVNGSQLHVLATVVAQNKADIKDLDDEVGLLGEEINSLEGEIFNNQDAIAKNQADIKTLESNVEEGLLDLSGRLLDQKADIDNNINNIYELAQQQDQHSSDIKTLKNNVEEGLLDLSGRLIDQKADLTKDIKALESNVEEGLLDLSGRLIDQKADIAKNQA",binding result,[8],binds
UspA1 454-770 (other) recombinant truncated protein: KADLTKDIKALESNVEEGLLDLSGRLIDQKADIAKNQADIAQNQTDIQDLAAYNELQDAYAKQQTEAIDALNKASSANTDRIATAELGIAENKKDAQIAKAQANENKDGIAKNQADIQLHDKKITNLGILHSMVARAVGNNTQGVATNKADIAKNQADIANNIKNIYELAQQQDQHSSDIKTLAKVSAANTDRIAKNKAEADASFETLTKNQNTLIEQGEALVEQNKAINQELEGFAAHADVQDKQILQNQADITTNKTAIEQNINRTVANGFEIEKNKAGIATNKQELILQNDRLNRINETNNHQDQKIDQLGYAL,binding result,[5],no binding
UspA2 446-539 (other) recombinant truncated protein: TDRIAKNKADDDASFETLTKNQNTLIEKDKEHDKLITANKTAIDANKASADTKFAATADAFTKNGNAITKNAKSITDLGTKVDGFDSRVTALDT,binding result,[9],no binding
same,binding result,[7],no binding
same,binding result,[10],no binding
recombinant UspA2^302-458 (other) IQDLATYNELQDQYAQKQTEAIDALNKASSENTQNIEDLAAYNELQDAYAKQQTEAIDALNKASSENTQNIEDLAAYNELQDAYAKQQAEAIDALNKASSENTQNIAKNQADIANNITNLYELAQQQDKHRSDIKTLAKTSAANTDRIAKNKADDDA,binding result,[7],no binding
recombinant UspA1^50-197 (other) KVGKATNKISGGDNNTANGTYLTIGGGDYNKTKGRYSTIGGGLFNEATNEYSTIGSGGYNKAKGRYSTIGGGGYNEATNQYSTIGGGDNNTAKGRYSTIGGGGYNEATIENSTVGGGGYNQAKGRNSTVAGGYNNEATGTDSTIAGGR,binding result,[11],no binding
same,binding result,[5],no binding
"recombinant UspA2^30-539 (M. catarrhalis Bc5) (other, also called UspA^230-539 [sic]) QAKNDITLEDLPYLIKKIDQNELEADIGDITALEKYLALSQYGNILALEELNKALEELDEDVGWNQNDIANLEDDVETLTKNQNAFAEQGEAIKEDLQGLADFVEGQEGKILQNETSIKKNTQRNLVNGFEIEKNKDAIAKNNESIEDLYDFGHEVAESIGEIHAHNEAQNETLKGLITNSIENTNNITKNKADIQALENNVVEELFNLSGRLIDQKADIDNNINNIYELAQQQDQHSSDIKTLKKNVEEGLLELSDHIIDQKTDIAQNQANIQDLATYNELQDQYAQKQTEAIDALNKASSENTQNIEDLAAYNELQDAYAKQQTEAIDALNKASSENTQNIEDLAAYNELQDAYAKQQAEAIDALNKASSENTQNIAKNQADIANNITNLYELAQQQDKHRSDIKTLAKTSAANTDRIAKNKADDDASFETLTKNQNTLIEKDKEHDKLITANKTAIDANKASADTKFAATADAFTKNGNAITKNAKSITDLGTKVDGFDSRVTALDT",Kd,[12],3 µM
same,EC50 (read off the curve),[13],~3 µg/mL
recombinant UspA1^50-321 (other) KVGKATNKISGGDNNTANGTYLTIGGGDYNKTKGRYSTIGGGLFNEATNEYSTIGSGGYNKAKGRYSTIGGGGYNEATNQYSTIGGGDNNTAKGRYSTIGGGGYNEATIENSTVGGGGYNQAKGRNSTVAGGYNNEATGTDSTIAGGRKNQATGKGSFAAGIDNKANADNAVALGNKNTIEGENSVAIGSNNTVKKGQQNVFILGSNTDTTNAQNGSVLLGHNTAGKAATIVNSAEVGGLSLTGFAGASKTGNGTVSVGKKGKERQIVHVGA,binding result,[5],no binding
same,binding result,[6],no binding
recombinant UspA1^433-580 (other) KTLKNNVEEGLLDLSGRLIDQKADLTKDIKALESNVEEGLLDLSGRLIDQKADIAKNQADIAQNQTDIQDLAAYNELQDAYAKQQTEAIDALNKASSANTDRIATAELGIAENKKDAQIAKAQANENKDGIAKNQADIQLHDKKITNL,binding result,[5],no binding
same,binding result,[6],no binding
recombinant UspA2^30-177 (other) QAKNDITLEDLPYLIKKIDQNELEADIGDITALEKYLALSQYGNILALEELNKALEELDEDVGWNQNDIANLEDDVETLTKNQNAFAEQGEAIKEDLQGLADFVEGQEGKILQNETSIKKNTQRNLVNGFEIEKNKDAIAKNNESIED,binding result,[10],no binding
same,binding result,[14],binds
